Laboratory results reported in patent US11906524B2, “Urea biosensors and uses thereof” (Duke University, priority 2015, dated 2024).
Substitutions are numbered along the chain they refer to. Names and notes keep the numbering of the source.

B1: csUBP7: urea-binding protein from Caldicellulosiruptor saccharolyticus, C89A, SEQ ID NO: 18 (protein)
chain: MSSSESEKEKSEETIKVGILHSLSGTMSISEVSLKDAELMAIEEINNNGGVLGKKLEPIVEDGASDWPTFAEKAKKLLQKDKVAVIFGAWTSASRKAVLPVVEENNGLLFYPVQYEGLESSPNIFYMGAAPNQQIVPAVKWLFDNGKKRFYLLGSDYVFPRTANKIIKAYLKYLGGVVVGEEYTPLGHTDYSSVINKIKAAKPDVVFNTLNGDSNVAFFKQLKDAGIDANTLPVMSVSIAEEEIKGIGPEYLKGHLVTWNYFQSVDTPENKEFVEKYKKKYGEDRVTDDPIEAAYIGVYLWAKAVEKAGSTDVDKVREAAKGIEFNAPEGPVKIDGDNQHLYKTVRIGEILENGQIRELWKTNKPVKPDPYLKGYEWAQGLSEQGGSHHHHHH
modifications: csUBP7 (with signal peptide replaced with M and a GGSHHHHHH at C-terminus, and also comprising a C89A substitution)
B2: csUBP7 N211C: csUBP7 211C cysteine mutant (SEQ ID NO: 41), tested as Acrylodan and Badan conjugates (conjugate)
chain: B1 chain with N211C
modifications: Acrylodan or Badan conjugate; csUBP7_211C (211C substitution mutant with signal peptide replaced with M and a GGSHHHHHH at C-terminus, and also comprising a C89A substitution)
B3: ctUBP6: urea-binding protein from Clostridium thermocellum, SEQ ID NO: 17 (protein)
chain: MVEEPVDNKPGTDTSAEDTIKVGILHSLSGTMAISEVSLKDAELMAIEEINQAGGLLGKKIEPVIEDGASDWPTFAEKAKKLLQNDKVATVFGCWTSASRKAVLPVFEENNGLLWYPVQYEGMESSPNIFYTGAAPNQQIVPAVEWLLENKGKRFFLLGSDYVFPRTANKIIKAQLSAIGGELIAEEYTPLGHTDYSTIVNKIKTAKPDVVFNTLNGDSNVAFFKQLKDAGITSEDITVCSVSVAEEEIRGIGAENIKGHLVSWNYYQTTDTPENKEFVEKYKSKYGSDRVTDDPIEAAYIAVHLWAEAVKKAGSFEVEKVKEAAKGLEFKAPEGLVKIEGENQHLWKPVRIGEVQEDGLIKEIWSTSEAVRPDPYLKTYDWAKGLSDGGSHHHHHH
modifications: ctUBP6 (with signal peptide replaced with M and a GGSHHHHHH at C-terminus)

Assays:
[1] = Thermal stability of purified UBP candidates (SYPRO Orange thermal melt, Roche LightCycler); type: physicochemical; conditions: apo-protein; SYPRO Orange monitors unfolded protein
Description: The urea-binding properties of these leads were determined experimentally (Table 4). These experiments comprise four successive steps: • 1. Synthetic gene construction. […] Heterologous protein expression of the homologues in E. coli. […] Verification of urea binding.
Analysis of urea-binding properties using thermal melts.

[2] = Temperature- and urea-dependent fluorescence landscapes of fluorescent conjugates (Roche LightCycler); type: binding; parameters: key: y, yes; n, no; conditions: fluorescent response to urea
Method in brief: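 Acrylodan or Badan was attached to single-cysteine csUBP7 mutants and fluorescence was recorded over 0–4.8 M urea in 20 mM KCl, 20 mM MOPS (pH 7.4), with temperature stepped by 1K. Urea Kd came from ratiometric single-site fits, and Kd values across temperatures were fit to the Gibbs-Helmholtz equation.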

[3] = Urea titration of emission intensity spectra (Nanodrop3300) with ratiometric analysis, singly labeled conjugates; type: binding; parameters: key to Acrylodan Intensity / Badan Intensity: +, increases in response to urea; −, decreases; 0, no change; key to Acrylodan Shape / Badan Shape: m, monochromatic; d, dichromatic (i.e. spectral shape changes); 0, no change
Description: Determination of emission intensity spectra.
Ratiometric analysis of urea binding. […] 2
For a single urea-binding site, the fractional saturation is given by
[formula] where [L] is the ligand (urea) concentration and Kd the dissociation constant, ^trueKd for ytrue.
[formula] where ^appIλ2 and ^satIλ2 are the emission intensities of the monochromatic signal at wavelength λ2 of the ligand-free and ligand-bound protein, respectively.

Molecule	Thermostability ^apoTm [1] [°C]	Response ([2]; Acrylodan conjugate)	Response ([2]; Badan conjugate)	Acrylodan Shape ([3]; csUBP7 Acrylodan conjugate, emission spectrum shape change on urea)	Acrylodan Dipoles ([3]; csUBP7 Acrylodan conjugate, estimated change in populations of major emission bands)	Badan Intensity ([3]; csUBP7 Badan conjugate, emission intensity change on urea)	Badan Shape ([3]; csUBP7 Badan conjugate, emission spectrum shape change on urea)	Badan Dipoles ([3]; csUBP7 Badan conjugate, estimated change in populations of major emission bands)	Kd ([3]; csUBP7 Badan conjugate, urea, read-out: Badan ^trueKd) [mM]
B1	67	–	–	–	–	–	–	–	–
B2	–	y	y	0	g (g, green (maxima >500 nm))	+	d	g→b/g	15
B3	89	–	–	–	–	–	–	–	–
